Measured values published in patent US20110223630A1, “METHOD FOR SCREENING FOR COMPOUNDS THAT INHIBIT NEURODEGENERATION” (priority 2008, published 2011).

Legend:
Assay in all cases: Cell-based AP binding assay on transfected COS-1 cells
APP = target: T1, APP (Homo sapiens, UniProt P05067); conditions: DR6-AP conditioned medium 1:1 with binding buffer, 90 minutes
T1 construct: expressed in transfected cells; host or cells: COS-1
Description: (§1) The materials and methods used to generate the data shown in this figure are as follows. To test whether APP directly interacts with DR6 extracellular domain, a cell-based A binding assay was carried out (FIG. 14B). To generate DR6 ectodomain-A fusion protein (DR6-AP), COS-1 cells cultured in DMEM/10% FBS (Gibco) medium were transfected with 15 microgram of DR6-AP fusion expression construct using FuGene transfection reagent (Roche) according to the manufacturer protocol. Twelve hours post-transfection, COS-1 cell medium was changed to OPTI-MEM (Invitrogen). Forty-eight hours post-transfection, COS-1 cell conditioned medium containing DR6-AP proteins was collected and filtered. The amount of DR6-AP proteins in the medium was quantified according to the following procedure. 100 microliters of 2×AP buffer (prepared by adding 100 mg Para-nitrophenyl phosphate (Sigma) and 15 microliter of 1M MgCl2 to 15 ml 2M diethanolamine pH 9.8) was mixed with equal volume of transfected COS cell conditioned medium or control conditioned medium from untransfected COS-1 cells. The color of the reaction was developed over 12-15 minutes, with the O.D. being in the linear range (0.1-1). The volume of reaction was then adjusted by adding 800 microliters of distilled water and the O.D. was measured at 405 nm absorbance wavelength. The concentration in nM was calculated according to the formula (for 100 microliter): C (nM)=O.D.×100×(60/developing time)/30. For the APP AP binding assay, COS-1 cells cultured in DMEM/10% FBS (Gibco) medium in 6-well culture dishes were transfected with 2 microgram of APP expressing vector per well using FuGene transfection reagent (Roche) according to the manufacturer protocol. Two days post-transfection, cells were washed twice with the binding buffer (HBSS, Gibco Cat. No. 14175-095, with 0.2% BSA, 0.1% NaN3, 5 mM CaCl2, 1 mM MgCl2, 20 mM HEPES, pH=7.0). […]

DR6 receptor = target: T2, DR6 receptor (Homo sapiens, UniProt O75509); conditions: same conditions as APP
T2 construct: expressed in transfected cells; host or cells: COS-1
T2 sequence (O75509 42-655): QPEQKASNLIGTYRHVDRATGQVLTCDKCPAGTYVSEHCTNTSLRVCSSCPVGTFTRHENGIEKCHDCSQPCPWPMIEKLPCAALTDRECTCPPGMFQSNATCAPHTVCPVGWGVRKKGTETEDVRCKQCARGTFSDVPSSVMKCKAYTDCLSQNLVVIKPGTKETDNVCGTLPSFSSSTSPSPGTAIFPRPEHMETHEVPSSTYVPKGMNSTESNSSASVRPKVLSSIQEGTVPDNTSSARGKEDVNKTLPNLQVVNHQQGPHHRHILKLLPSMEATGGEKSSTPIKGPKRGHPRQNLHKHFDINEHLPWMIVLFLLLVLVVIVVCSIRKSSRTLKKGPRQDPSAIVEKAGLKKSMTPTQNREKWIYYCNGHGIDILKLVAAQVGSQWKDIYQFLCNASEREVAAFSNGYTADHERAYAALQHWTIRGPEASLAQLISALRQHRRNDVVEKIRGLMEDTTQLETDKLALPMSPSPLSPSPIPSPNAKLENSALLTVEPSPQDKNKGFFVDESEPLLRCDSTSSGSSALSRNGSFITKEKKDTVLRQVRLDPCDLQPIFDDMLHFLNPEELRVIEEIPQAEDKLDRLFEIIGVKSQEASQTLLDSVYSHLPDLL
Description: as §1

p75NTR = target: T3, p75NTR (Homo sapiens, UniProt P08138); conditions: same conditions as APP
T3 construct: expressed in transfected cells; host or cells: COS-1
T3 sequence (P08138 29-427): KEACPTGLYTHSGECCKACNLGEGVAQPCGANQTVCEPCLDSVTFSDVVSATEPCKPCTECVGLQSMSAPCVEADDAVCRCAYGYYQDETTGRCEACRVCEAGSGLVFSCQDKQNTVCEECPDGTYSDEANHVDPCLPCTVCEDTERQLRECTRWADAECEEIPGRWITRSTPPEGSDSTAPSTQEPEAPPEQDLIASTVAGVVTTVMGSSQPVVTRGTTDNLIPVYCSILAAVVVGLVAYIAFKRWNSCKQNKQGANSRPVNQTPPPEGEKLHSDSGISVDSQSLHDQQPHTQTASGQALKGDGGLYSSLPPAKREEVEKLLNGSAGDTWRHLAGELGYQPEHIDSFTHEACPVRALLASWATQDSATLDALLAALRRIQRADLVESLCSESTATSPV
Description: as §1

T1 sequence (P05067 18-770): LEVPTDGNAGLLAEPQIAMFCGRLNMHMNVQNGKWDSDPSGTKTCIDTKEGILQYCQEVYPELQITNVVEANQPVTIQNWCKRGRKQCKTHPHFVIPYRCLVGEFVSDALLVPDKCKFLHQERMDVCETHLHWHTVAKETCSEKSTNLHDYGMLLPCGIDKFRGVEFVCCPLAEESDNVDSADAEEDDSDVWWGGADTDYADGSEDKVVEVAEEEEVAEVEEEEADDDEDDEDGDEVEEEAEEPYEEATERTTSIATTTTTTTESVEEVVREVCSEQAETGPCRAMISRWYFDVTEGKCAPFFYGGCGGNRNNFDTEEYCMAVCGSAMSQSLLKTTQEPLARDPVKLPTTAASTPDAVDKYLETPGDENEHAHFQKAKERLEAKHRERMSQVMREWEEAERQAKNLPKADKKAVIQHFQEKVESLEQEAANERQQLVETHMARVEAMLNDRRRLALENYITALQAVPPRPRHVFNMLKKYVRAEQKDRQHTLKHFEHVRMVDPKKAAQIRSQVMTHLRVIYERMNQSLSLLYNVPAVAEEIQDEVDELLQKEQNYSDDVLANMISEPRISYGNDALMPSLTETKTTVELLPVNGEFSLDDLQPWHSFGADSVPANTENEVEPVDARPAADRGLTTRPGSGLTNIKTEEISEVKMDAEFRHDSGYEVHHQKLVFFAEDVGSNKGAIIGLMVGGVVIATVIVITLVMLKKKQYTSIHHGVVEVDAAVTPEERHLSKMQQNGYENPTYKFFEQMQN

B1: DR6-AP: mouse DR6 ectodomain fused to human placental alkaline phosphatase (protein)
chain: QPEQKTLSLPGTYRHVDRTTGQVLTCDKCPAGTYVSEHCTNMSLRVCSSCPAGTFTRHENGIERCHDCSQPCPWPMIERLPCAALTDRECICPPGMYQSNGTCAPHTVCPVGWGVRKKGTENEDVRCKQCARGTFSDVPSSVMKCKAHTDCLGQNLEVVKPGTKETDNVCGMRLFFSSTNPPSSGTVTFSHPEHMESHDVPSSTYEPQGMNSTDSNSTASVRTKVPSGIEEGTVPDNTSSTSGKEGTNRTLPNPPQVTHQQAPHHRHILKLLPSSMEATGEKSSTAIKAPKRGHPRQNAHKHFDINEH
modifications: left off: large carriers
notes: mouse DR6 ectodomain fused to human placental alkaline phosphatase
binding of DR6 ectodomain-AP to APP expressing COS cells (APP): binds APP expressed by cultured cells
binding of DR6 ectodomain-AP to DR6 receptor expressing cells (DR6 receptor): does NOT bind
binding of DR6 ectodomain-AP to p75NTR expressing cells (p75NTR): does NOT bind
